Measured values: publication PMC7339583 (Alzheimer's Research & Therapy, 2020)
Several values for one entry are separate records, joined by “and”; a condition that tells them apart may be missing. Identical values can stand only once. Entries after “also recorded” stand apart in the source; their conditions may differ.

Legend:
CatD [1] = target: T1, CatD (Homo sapiens, UniProt P07339); assay: Competitive inhibition of CatD activity, fluorogenic substrate (fluorescence dequenching); type: biochemical; settings: mean ± SEM of 4–8 replicates (Fig. 4f)
T1 construct: purchased Enzo Life Sciences
Method: To address this, we tested the extent to which different peptides at identical concentrations inhibited CatD activity monitored with a fluorogenic substrate.
For the determination of the pH dependence of Aβ degradation in soluble brain extracts, freshly harvested brain tissue from 15-day-old mice was dissociated in 20 mM Tris-HCl, pH 7.4 at 4 °C using a Dounce homogenizer, then centrifuged at 1000×g. The resulting supernatant was diluted 1:20 in Britton-Robinson buffers of different pHs, and CatD activity was quantified either using a well-characterized fluorescence polarization-based Aβ degradation assay as described or by monitoring hydrolysis of the CatD-specific fluorogenic substrate, Mca-[…]-Dnp. Kinetic experiments were conducted using freshly prepared, monomeric Aβ peptides separated from aggregated species by size-exclusion chromatography (SEC) and characterized as described. Aβ peptides and PepA were diluted in neutral Dilution Buffer (20 mM Tris, pH 8.0 supplemented with 0.1% BSA), with addition of DMSO as appropriate, and reactions were initiated by transfer into Assay Buffer (60 mM Na-citrate; 80 mM Na2HPO4, pH 4.0; Sigma) supplemented with purified human CatD (Enzo Life Sciences). Where required, reactions were terminated by adjustment to neutral pH with 10× Stop Buffer (0.2 M Tris-HCL, pH 9.5 supplemented with 10 μM PepA). […] Competitive inhibition experiments were conducted using either ELISAs, an Aβ-degradation assay or the fluorogenic substrate.

[2] = target: Cathepsin D (purified human CatD, Enzo Life Sciences) (human) (UniProt P07339)
[3] = target: T2, insulin-degrading enzyme (IDE) (Mus musculus, UniProt Q9JHR7); assay: Aβ-degrading activity in soluble brain extracts at neutral pH; type: biochemical; settings: 15-day-old mice; excess insulin; pH 7.5 to 9.5
T2 construct: freshly harvested brain tissue from 15-day-old mice was dissociated in 20 mM Tris-HCl, pH 7.4; from tissue; host or cells: mouse brain, soluble extract (15-day-old mice)
Text: (§1) As an initial step towards elucidating the role of CatD in Aβ proteostasis, we quantified rates of Aβ degradation in vitro in soluble brain extracts from CatD-KO mice and wild-type controls as a function of pH, focusing on extracts from 15-day-old mice, due to the premature lethality of CatD-KO mice that occurs by ~ 4 weeks of age. Consistent with previous results, Aβ-degrading activity was present principally within two pH ranges: at neutral pH (pH 7.5 to 9.5) and—to a considerably larger extent—also at acidic pH (pH 2.5 to 4.5) (Fig. 1a). The Aβ-degrading activity at neutral pH was inhibited by excess insulin and reflects the activity of the neutral protease insulin-degrading enzyme (IDE), as shown previously by McDermott and Gibson. […] To extend and confirm these findings, we quantified Aβ degradation at pH 4.0 in soluble brain extracts from CatD-KO and WT mice, as well as heterozygous null (CatD-HET) mice (Fig. 1b). […] Consistent with this, levels of both preprocathepsin D and mature CatD protein in the CatD-HET animals were also determined to be > 50% of WT levels (Fig. 1c, d), with mature CatD protein being reduced by only 26.0 ± 14.2% relative to WT controls (p > 0.05; Fig. 1d). […]

CatD [4] = target: T3, CatD (Mus musculus, UniProt P18242); assay: Aβ-degrading activity in soluble brain extracts at pH 4.0; type: biochemical; settings: 15-day-old mice, 4 replicates
T3 construct: freshly harvested brain tissue from 15-day-old mice was dissociated in 20 mM Tris-HCl, pH 7.4; from tissue; host or cells: mouse brain, soluble extract (15-day-old WT and CatD-HET mice)
Text: as §1

T1 sequence (P07339 65-412): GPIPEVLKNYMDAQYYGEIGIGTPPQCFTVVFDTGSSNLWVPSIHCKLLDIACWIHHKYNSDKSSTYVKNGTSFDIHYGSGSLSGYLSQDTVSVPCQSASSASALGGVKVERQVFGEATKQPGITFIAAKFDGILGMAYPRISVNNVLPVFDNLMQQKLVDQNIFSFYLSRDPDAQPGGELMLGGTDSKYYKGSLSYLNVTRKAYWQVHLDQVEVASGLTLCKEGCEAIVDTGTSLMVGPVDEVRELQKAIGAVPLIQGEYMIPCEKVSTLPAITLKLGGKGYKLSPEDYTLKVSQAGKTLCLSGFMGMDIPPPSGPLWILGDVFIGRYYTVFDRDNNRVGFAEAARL
T3 sequence (P18242 65-410): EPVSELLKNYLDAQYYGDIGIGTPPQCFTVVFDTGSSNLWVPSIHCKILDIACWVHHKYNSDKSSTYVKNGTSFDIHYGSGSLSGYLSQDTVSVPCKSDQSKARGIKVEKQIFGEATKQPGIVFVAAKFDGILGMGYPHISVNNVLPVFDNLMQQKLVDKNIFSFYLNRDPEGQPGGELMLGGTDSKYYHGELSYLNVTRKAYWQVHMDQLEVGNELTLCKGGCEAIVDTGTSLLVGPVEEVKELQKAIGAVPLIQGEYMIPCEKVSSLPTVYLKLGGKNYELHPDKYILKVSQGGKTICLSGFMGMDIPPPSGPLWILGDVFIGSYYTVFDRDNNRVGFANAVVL
T2 sequence (Q9JHR7 whole entry): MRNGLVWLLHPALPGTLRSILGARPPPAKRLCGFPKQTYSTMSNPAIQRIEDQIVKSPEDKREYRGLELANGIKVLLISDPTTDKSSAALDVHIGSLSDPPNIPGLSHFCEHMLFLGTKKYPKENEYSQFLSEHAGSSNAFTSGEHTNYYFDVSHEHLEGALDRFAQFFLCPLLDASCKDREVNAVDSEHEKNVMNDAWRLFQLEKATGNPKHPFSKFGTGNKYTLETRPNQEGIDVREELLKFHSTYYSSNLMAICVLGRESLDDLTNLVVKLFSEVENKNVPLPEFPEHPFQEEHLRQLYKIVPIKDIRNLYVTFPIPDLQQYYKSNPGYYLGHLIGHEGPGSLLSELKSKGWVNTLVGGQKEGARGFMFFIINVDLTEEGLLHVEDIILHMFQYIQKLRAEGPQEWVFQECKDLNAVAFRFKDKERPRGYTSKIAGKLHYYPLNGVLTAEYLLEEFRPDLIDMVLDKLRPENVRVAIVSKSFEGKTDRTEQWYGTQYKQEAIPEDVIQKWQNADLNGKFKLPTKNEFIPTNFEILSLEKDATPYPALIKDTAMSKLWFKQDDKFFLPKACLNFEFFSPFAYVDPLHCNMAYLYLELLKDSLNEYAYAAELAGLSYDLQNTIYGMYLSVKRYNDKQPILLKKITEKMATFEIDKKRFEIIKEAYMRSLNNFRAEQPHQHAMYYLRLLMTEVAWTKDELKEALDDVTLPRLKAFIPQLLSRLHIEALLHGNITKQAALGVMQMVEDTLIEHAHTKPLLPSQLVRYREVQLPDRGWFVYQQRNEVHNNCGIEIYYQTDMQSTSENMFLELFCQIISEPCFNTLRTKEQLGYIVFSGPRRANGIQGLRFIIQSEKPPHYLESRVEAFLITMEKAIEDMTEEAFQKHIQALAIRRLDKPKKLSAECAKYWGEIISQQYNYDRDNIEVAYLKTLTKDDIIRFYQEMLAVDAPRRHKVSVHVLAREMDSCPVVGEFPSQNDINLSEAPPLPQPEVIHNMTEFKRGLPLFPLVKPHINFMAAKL

Row | Substance | inhibition of CatD activity at 1 μM peptide (CatD [1]) | further results
1 | Aβ(33–40): C-terminal fragment corresponding to Aβ(33–42), ending at position 40 (GLMVGGVV; Amyloid-beta protein 40; UniProt P05067 704-711, looked up, fragment) | modest but statistically significant inhibition | 
2 | rodent Aβ42: full-length murine Aβ ending at position 42 (DAEFGHDSGFEVRHQKLVFFAEDVGSNKGAIIGLMVGGVVIA) | > 90% | inhibition of CatD activity at 1 μM peptide (CatD [1]; listed as mAβ(1–42)): strongly inhibited
3 | full-length murine Aβ (mAβ(1–42)) (from UniProt P12023 672-713) (peptide) |  | inhibition of CatD activity (fluorogenic substrate) by 1 μM peptide [2]: > 90%
4 | insulin |  | inhibition of Aβ-degrading activity at neutral pH in brain extracts [3]: inhibited
5 | pepstatin A |  | inhibition of Aβ-degrading activity in WT and CatD-HET brain extracts (CatD [4]): largely inhibited; also recorded: inhibited almost completely

Further lines, with some results ahead:

Row | inhibition of CatD activity at 1 μM peptide (CatD [1]) | Substance | further results
6 | strongly inhibited and > 90% | Aβ(17–42): α-secretase-derived p3 fragment of APP ending at position 42 (LVFFAEDVGSNKGAIIGLMVGGVVIA; Amyloid-beta protein 42; UniProt P05067 688-713, looked up, fragment) | 
7 | failed to inhibit significantly | Aβ(33–42): short C-terminal fragment of Aβ42 (GLMVGGVVIA; Amyloid-beta protein 42; UniProt P05067 704-713, looked up, fragment) | 
